This note sets out measurements from paper PMC8761494, “Structural basis of Nrd1–Nab3 heterodimerization” (Life Science Alliance, 2022).

“And” between values parts separate entries of the source, which are not always exact repeats. Identical values can stand only once. Like-named read-outs stand apart in the source and are kept apart here.

In experiment [1] the target is T1, Nrd1_(147-222/290-489) (S. cerevisiae, UniProt P53617 147-489, lacking residues 223–289).
T1 sequence: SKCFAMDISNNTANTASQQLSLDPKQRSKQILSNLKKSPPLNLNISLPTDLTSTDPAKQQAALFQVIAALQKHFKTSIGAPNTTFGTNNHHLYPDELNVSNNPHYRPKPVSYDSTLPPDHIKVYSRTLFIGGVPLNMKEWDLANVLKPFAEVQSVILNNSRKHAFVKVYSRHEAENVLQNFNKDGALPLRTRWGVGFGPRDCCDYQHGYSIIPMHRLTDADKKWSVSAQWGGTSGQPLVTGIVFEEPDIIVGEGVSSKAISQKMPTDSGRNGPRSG
Nature of the experiment: ITC. In general terms: Isothermal titration calorimetry measures the heat released or taken up as one component is titrated into another.

Experiment [2] concerns the target T2, Nrd1_(1-222) (S. cerevisiae, UniProt P53617 1-222).
T2 chain: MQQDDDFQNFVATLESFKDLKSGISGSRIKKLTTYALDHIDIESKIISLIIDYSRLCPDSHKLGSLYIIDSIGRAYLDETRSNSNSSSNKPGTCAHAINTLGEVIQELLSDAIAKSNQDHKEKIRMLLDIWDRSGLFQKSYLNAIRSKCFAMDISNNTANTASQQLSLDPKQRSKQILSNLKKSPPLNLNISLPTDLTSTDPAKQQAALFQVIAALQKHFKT
Put plainly: ITC.

For experiment [3], the target named is T3, txA-HTEV-Nrd1_(147-222) NAID (S. cerevisiae, UniProt P53617 147-222).
T3 chain: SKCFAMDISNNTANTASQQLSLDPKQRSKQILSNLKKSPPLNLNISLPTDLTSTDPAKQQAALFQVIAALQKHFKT
Nature of the experiment: ITC.

In experiment [4] the target is T1, Nrd1_(147-222/290-489). Nature of the experiment: ITC. The source holds these as a separate data set.
Experiment [5] addresses T2, Nrd1_(1-222). Put plainly: ITC.
Experiment [6] concerns the target T3, txA-HTEV-Nrd1_(147-222) NAID. Put plainly: ITC.
Experiment [7] has as its target T1, Nrd1_(147-222/290-489). Put plainly: ITC. The source holds these as a separate data set.
Experiment [8] concerns the target T2, Nrd1_(1-222). Nature of the experiment: ITC.
The target of experiment [9] is T4, Nrd1_(147-222/290-489) (S. cerevisiae, UniProt P53617 147-489, lacking residues 223–289).
T4 construct: no linker is mentioned; source: E. coli BL21(DE3), purified (IMAC, TEV digestion, second IMAC, gel filtration); not shown: TxA (E. coli thioredoxin A), N-terminal, cleaved; His6, N-terminal, cleaved
T4 sequence (looked up): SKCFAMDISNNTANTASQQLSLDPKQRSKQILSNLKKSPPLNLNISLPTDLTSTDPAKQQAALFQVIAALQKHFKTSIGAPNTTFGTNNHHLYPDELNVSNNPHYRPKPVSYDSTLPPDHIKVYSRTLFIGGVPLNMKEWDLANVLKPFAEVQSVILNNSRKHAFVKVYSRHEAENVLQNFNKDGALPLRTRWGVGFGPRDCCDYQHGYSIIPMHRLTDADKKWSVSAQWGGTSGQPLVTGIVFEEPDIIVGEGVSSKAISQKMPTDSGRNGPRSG
Nature of the experiment: ITC; Nab3_(191-261) (198 μM) in the syringe titrated into Nrd1 variants in the cell (19-54 μM); 15°C; 20 mM potassium phosphate pH 7.0, 150 mM NaCl, 1 mM β-mercaptoethanol; one-site binding model; duplicates. The following applies: both partners purified.

The target in experiment [10] is T5, Nrd1_(1-222) (S. cerevisiae, UniProt P53617 1-222).
T5 construct: also called Nrd1 construct including the CID and NAID; source: E. coli BL21(DE3), purified (IMAC, TEV digestion, second IMAC, gel filtration); not shown: TxA (E. coli thioredoxin A), N-terminal, cleaved; His6, N-terminal, cleaved
T5 sequence (looked up): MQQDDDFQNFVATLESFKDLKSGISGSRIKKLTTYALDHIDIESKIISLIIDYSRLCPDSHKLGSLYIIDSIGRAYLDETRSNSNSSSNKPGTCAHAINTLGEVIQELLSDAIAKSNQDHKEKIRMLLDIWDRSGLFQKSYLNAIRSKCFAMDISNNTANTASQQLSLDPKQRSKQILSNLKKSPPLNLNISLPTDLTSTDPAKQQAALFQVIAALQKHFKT
Described as above. The following applies: both partners purified.

Experiment [11] concerns the target T6, Nrd1 part (residues 158-222) of the Nrd1_(158-222)-Nab3_(202-261) chimera (S. cerevisiae, UniProt P53617 158-222).
T6 construct: also called Nrd1 segment of the Nrd1–Nab3 chimera; source: E. coli BL21(DE3), purified (IMAC, TEV digestion, second IMAC, gel filtration); not shown: TxA (E. coli thioredoxin A), N-terminal, cleaved; His6, N-terminal, cleaved
T6 sequence (looked up): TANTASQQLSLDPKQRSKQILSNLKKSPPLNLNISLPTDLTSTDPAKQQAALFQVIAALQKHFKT
Nature of the experiment: NMR structure; the two stretches joined on one chain (chimera Nrd1_(158-222)-Nab3_(202-261)); 10 mM sodium acetate pH 5.1, 25 mM NaCl, 1 mM DTT, 25°C, ~1 mM protein. The settings on record: both partners purified.

B1: Nrd1 interaction domain of Nab3 (Nab3 191-261) (domain or fragment, S. cerevisiae, UniProt P38996 191-261, looked up)
chain: REENDNTHFPTNMENVNYDLLQKQVKYIMDSNMLNLPQFQHLPQEEKMSAILAMLNSNSDTALSVPPHDST
notes: 15N/13C-labelled or unlabelled for NMR; natural abundance for ITC; also called NRID; Nab3 NRID; source: E. coli BL21(DE3), purified (IMAC, TEV digestion, second IMAC, gel filtration); not shown: TxA (E. coli thioredoxin A), N-terminal, cleaved; His6, N-terminal, cleaved
For the molecule B1, the Ka with Nrd1_(147-222/290-489) [1] is 4.97e+07 M⁻¹; with Nrd1_(1-222) [2], 7.22e+06 M⁻¹; in experiment [3], 4.06e+07 M⁻¹ and 4.34e+07 M⁻¹. Besides, the Kd (in general, a measure of binding affinity in units of concentration) with Nrd1_(147-222/290-489) [4] was 20 nM; with Nrd1_(1-222) [5], 140 nM; in [6], 23 nM and 25 nM; with Nrd1_(147-222/290-489) [7] it was 36 nM; with Nrd1_(1-222) [8], 130 nM. In addition, the “fold tighter binding than with Nrd1_(1-222)” value with Nrd1_(147-222/290-489) [9] was approximately 4 fold. Besides, the stoichiometry N (usually the number of molecules, sites or subunits per partner or assembly) with Nrd1_(1-222) [10] was determined as 0.4.

B2: Nab3 part (residues 202-261) of the Nrd1_(158-222)-Nab3_(202-261) chimera (domain or fragment, S. cerevisiae, UniProt P38996 202-261, looked up)
chain: NMENVNYDLLQKQVKYIMDSNMLNLPQFQHLPQEEKMSAILAMLNSNSDTALSVPPHDST
notes: Nab3, S. cerevisiae, residues 202-261; also called Nab3 segment of the Nrd1–Nab3 chimera; source: E. coli BL21(DE3), purified (IMAC, TEV digestion, second IMAC, gel filtration)
On to B2, for which, in experiment [11], the binding result is listed as “binds”.
